The values below come from patent publication US20230235040A1 (ALMIRALL S A, published 2023).

Assay [1] concerns the target T1, hu-IL-36β (human IL-36β, N-terminally truncated active form R5-E157) (human).
T1 construct: Purification tag cleaved off; Biotinylated where captured; also called hu-IL-36b
T1 chain: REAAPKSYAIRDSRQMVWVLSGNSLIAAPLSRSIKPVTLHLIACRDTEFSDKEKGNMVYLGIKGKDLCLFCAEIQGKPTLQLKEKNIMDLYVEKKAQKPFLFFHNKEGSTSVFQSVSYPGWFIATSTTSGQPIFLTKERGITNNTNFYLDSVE
Briefly: SPR (Biacore 8K), biotinylated IL-36 captured on CAP chip, Fab injected, 25°C. The protocol:
(§1) Briefly, a 1:4 dilution of Biotin CAPture Reagent (GE Healthcare, Chicago, Ill., USA)) into HBS-EP buffer (GE Healthcare, Chicago, Ill., USA; 0.01 M HEPES pH 7.4, 0.15 M NaCl, 3 mM EDTA, 0.005% Surfactant P20) was applied to a CAP sensor chip at 2 μL/min flow rate. […] FC1 was kept as a reference. […] The sensorgram was recorded and subject to reference and buffer subtraction before data analysis with the BIACORE® 8K Evaluation Software (GE Healthcare, Chicago, Ill., USA; version 1.1.1.7442). Association rates (kₒₙ) and dissociation rates (koff) were calculated using a simple one-to-one Langmuir binding model. The equilibrium dissociation constant (KD) was calculated as the ratio of koff/kₒₙ.
A general note: Surface plasmon resonance follows binding to a sensor surface in real time, without labels.

In assay [2] the target is T1, hu-IL-36β (human IL-36β, N-terminally …). Nature of the assay: SPR (Biacore 8K), biotinylated IL-36 captured on CAP chip, Fab injected, 37°C. On the procedure: as §1
The target of assay [3] is T2, hu-IL-36α (human IL-36α, N-terminally truncated active form K6-F158) (human, UniProt Q9UHA7 6-158).
T2 construct: Purification tag cleaved off; Biotinylated where captured (SPR, some ELISAs); also called hu-IL-36a
T2 sequence: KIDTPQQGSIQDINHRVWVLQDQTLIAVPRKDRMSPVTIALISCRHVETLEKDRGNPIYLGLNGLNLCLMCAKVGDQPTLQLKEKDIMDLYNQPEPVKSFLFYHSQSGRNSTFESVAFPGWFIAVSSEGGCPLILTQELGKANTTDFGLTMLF
Nature of the assay: phage competition ELISA: Fab on phage, soluble hu-IL-36α titrated against coated hu-IL-36α. The protocol:
(§2) Selected phages with top binding signal were purified to perform phage competition ELISA. The optimal phage concentration was incubated with serially-diluted human IL-36α or human IL-36γ in ELISA buffer in NUNC F plate for two hours. 80 μL of the mixture was transferred to human IL-36α or human IL-36γ coated wells for 15 min to capture unbound phage. The plate was washed with wash buffer (0.05% TWEEN®20 in PBS), and HRP-conjugated anti-M13 antibody (Sino biological, Cat #11973-MM05-H-50) was added in ELISA buffer for 30 min. The plates were washed and developed as described above. The absorbance at 450 nm was plotted as a function of antigen concentration in solution to determine phage IC50.
In general terms: In an ELISA, binding on a coated surface is turned into a signal by an enzyme label.

For assay [4], the target named is T3, hu-IL-36γ (human IL-36γ, N-terminally truncated active form S18-D169) (human, UniProt Q9NZH8 18-169).
T3 construct: Purification tag cleaved off; Biotinylated where captured; also called hu-IL-36g
T3 sequence: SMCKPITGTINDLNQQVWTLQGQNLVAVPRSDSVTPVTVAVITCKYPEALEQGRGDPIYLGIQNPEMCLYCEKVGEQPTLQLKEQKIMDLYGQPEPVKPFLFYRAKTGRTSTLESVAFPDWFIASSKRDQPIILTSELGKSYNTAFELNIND
Briefly: SPR (Biacore 8K), biotinylated hu-IL-36 captured on CAP chip, Fab injected, 37°C. The protocol:
(§3) Briefly, a 1:4 dilution of Biotin CAPture Reagent (GE) into HBS-EP buffer (0.01 M HEPES pH 7.4, 0.15 M NaCl, 3 mM EDTA, 0.005% Surfactant P20) was applied to a CAP sensor chip at 2 uL/min flow rate. For kinetics measurements, 3 nM biotinylated human IL-36α and human IL-36γ was captured at 10 uL/min to achieve ˜50 response units in the second flow cell (FC2). FC1 was kept as a reference. […] The sensorgram was recorded and subject to reference and buffer subtraction before evaluating by BIACORE® 8K Evaluation Software (version 1.1.1.7442). Association rates (kₒₙ) and dissociation rates (koff) were calculated using a simple one-to-one Langmuir binding model.

In assay [5] the target is T2, hu-IL-36α (human IL-36α, N-terminally …). Described as above. The protocol:
as §3

Assay [6] deals with T3, hu-IL-36γ (human IL-36γ, N-terminally …). Briefly: cell-based or functional assay.
In assay [7] the target is T2, hu-IL-36α (human IL-36α, N-terminally …). Briefly: cell-based or functional assay.
The target in assay [8] is T3, hu-IL-36γ (human IL-36γ, N-terminally …). Nature of the assay: phage competition ELISA: Fab on phage, soluble hu-IL-36γ titrated against coated hu-IL-36γ. The protocol:
as §2

Assay [9] has the same target. Briefly: SPR (Biacore 8K), biotinylated IL-36 captured on CAP chip, Fab injected, 25°C. The protocol: as §1
For assay [10], the target named is T2, hu-IL-36α (human IL-36α, N-terminally …). Described as above. On the procedure: as §1
In assay [11] the target is T3, hu-IL-36γ (human IL-36γ, N-terminally …). Briefly: SPR (Biacore 8K), biotinylated IL-36 captured on CAP chip, Fab injected, 37°C. The protocol: as §1
Assay [12] has as its target T2, hu-IL-36α (human IL-36α, N-terminally …). The description is as above. On the procedure: as §1
The target of assay [13] is T1, hu-IL-36β (human IL-36β, N-terminally …). Nature of the assay: ELISA, yeast Fab supernatant, anti-Fab-HRP.
For assay [14] the target is unchanged. Nature of the assay: cell-based or functional assay.

B1: mAb6.0 Fab (purified, lysyl-C cleaved from recombinant IgG1) (Fab, V domains shown)
VH: QLQLQESGPGLVKPSETLSLTCTVSGGSITSSNYYWGWIRQPPGKGLEWIGSIDYTGSTYYNPSLKSRVTISVDTSKNQFSLKLSSVTAADTAVYYCARGKYYETYLGFDVWGQGTLVTVSS
VL: QSVLTQPPSVSGAPGQRVTISCTGSSSNIGAGYDVHWYQQLPGTAPKLLIYGNTNRPSGVPDRFSGSKSGTSASLAITGLQAEDEADYYCQSYDISLSGWVFGGGTKLTVL
notes: also called purified mAb6.0 Fab
In the case of B1, in assay [1], the Kd (usually a measure of binding affinity in units of concentration) came out at 1.79 nM; the koff (in general, the first-order rate constant of dissociation) was determined as 7.23e-05 s⁻¹; the on-rate (kon) (in general, a measure of how fast the partners come together) was found to be 40400 M⁻¹ s⁻¹. In addition, in assay [2], binding was characterised by a dissociation constant (Kd) of 1.93 nM, the dissociation rate constant (koff) turned out to be 0.000118 s⁻¹ and the kon came to 61100 M⁻¹ s⁻¹.

B2: mAb2 Fab (Fab, V domains shown)
VH: ELQLQESGPGLVKPSETLSLTCTVSGGSISTSSYYWGWIRQPPGKGLEWIGSIYYTGNTYYNPSLKSRVTISVDTSKNQFSLKLSSVTAADTAVYYCARVRYGVGVPRYFDPWGQGTLVTVSS
VL: ESVLTQPPSVSGAPGQRVTISCTGSSSNIGAHYDVHWYQQLPGTAPKLLIYGNDNRPSGVPDRFSGSKSGTSASLAITGLQAEDEADYYCQSYDYSLSGYVFGGGTKLTVL
Take B2: the “apparent IC50 (pooled screen)” value was found to be 1.2 nM in assay [3] and 3.2 nM in assay [8]. The “apparent Kd (pooled screen)” value in assay [4] is 0.41 nM; in assay [5], 0.23 nM. Further, the “apparent koff (pooled screen)” value in [4] came out at 0.000574 s⁻¹; in [5], 0.000264 s⁻¹. In addition, the “apparent kon (pooled screen)” value in assay [4] worked out at 1.39e+06 M⁻¹ s⁻¹; in [5], 1.16e+06 M⁻¹ s⁻¹. For the same molecule, the figures for the “IC50, IL-36-stimulated IL-8 secretion by HaCat cells” value (shortened to “IC50 … by HaCat cells”) in assay [6] and in [7] were 0.96 nM and 0.3 nM, respectively.

B3: mAb2.11 Fab (Fab, V domains shown)
VH: ELQLQESGPGLVKPSETLSLTCTVSGGSISESSYYWGWIRQPPGKGLEWIGSIYYTGETYYAPSLKSRVTISVDTSKNQFSLKLSSVTAADTAVYYCARLRYGVGVPRYFDPWGQGTLVTVSS
VL: ESVLTQPPSVSGAPGQRVTISCTGSSSNIGAHYDVHWYQQLPGTAPKLLIYGNDNRPSGVPDRFSGSKSGTSASLAITGLQAEDEADYYCQSYDYSLSGYVFGGGTKLTVL
notes: Recombinant Fab with 8xHis tag (Expi293F)
As for B3, in assay [4], the equilibrium dissociation constant (Kd) is 0.11 nM, the koff was found to be 0.000214 s⁻¹ and the kon was found to be 1.92e+06 M⁻¹ s⁻¹. Moreover, in assay [5], the Kd turned out to be 0.13 nM, the koff is 0.000244 s⁻¹ and the kon worked out at 1.91e+06 M⁻¹ s⁻¹. Also, the “IC50 … by HaCat cells” value in assay [6] was found to be 1.05 nM. For the same molecule, the “IC50 … by HaCat cells” value in [7] was determined as 0.42 nM.

B4: mAb2.0 Fab (purified, lysyl-C cleaved from recombinant IgG1) (Fab, V domains shown)
VH: QLQLQESGPGLVKPSETLSLTCTVSGGSISTSSYYWGWIRQPPGKGLEWIGSIYYTGNTYYNPSLKSRVTISVDTSKNQFSLKLSSVTAADTAVYYCARVRYGVGVPRYFDPWGQGTLVTVSS
VL: QSVLTQPPSVSGAPGQRVTISCTGSSSNIGAHYDVHWYQQLPGTAPKLLIYGNDNRPSGVPDRFSGSKSGTSASLAITGLQAEDEADYYCQSYDYSLSGYVFGGGTKLTVL
notes: also called purified mAb2.0 Fab
With B4, the dissociation constant (Kd) in [9] worked out at 0.98 nM; in assay [10], 1.2 nM; in assay [11], 1.61 nM; in [12] it was 0.3 nM. Moreover, the koff in assay [9] is 0.000358 s⁻¹; in assay [10], 0.000413 s⁻¹; in assay [11], 0.00108 s⁻¹; in [12], 0.000502 s⁻¹. In addition, the kon was determined as 366000 M⁻¹ s⁻¹ in [9], 345000 M⁻¹ s⁻¹ in assay [10], 671000 M⁻¹ s⁻¹ in assay [11] and 1.69e+06 M⁻¹ s⁻¹ in assay [12].

B5: mAb2.10 Fab (Fab, V domains shown)
VH: ELQLQESGPGLVKPSETLSLTCTVSGGSISDSSYYWGWIRQPPGKGLEWIGSIYYTGETYYAPSLKSRVTISVDTSKNQFSLKLSSVTAADTAVYYCARVRYGVGVPRHFDPWGQGTLVTVSS
VL: ESVLTQPPSVSGAPGQRVTISCTGSSSNIGAHYDVHWYQQLPGTAPKLLIYGNDNRPSGVPDRFSGSKSGTSASLAITGLQAEDEADYYCQSYDYSLSGYVFGGGTKLTVL
notes: as for B3
On to B5, for which, in assay [4], the Kd came out at 0.13 nM, the koff amounted to 0.00018 s⁻¹ and the kon stood at 1.37e+06 M⁻¹ s⁻¹. For the same molecule, in assay [5], the equilibrium dissociation constant (Kd) came to 0.15 nM, the koff was 0.000222 s⁻¹ and the kon stood at 1.49e+06 M⁻¹ s⁻¹. In assay [6], the “IC50 … by HaCat cells” value amounted to 1.09 nM. Also, in assay [7], the “IC50 … by HaCat cells” value is 0.38 nM.

B6: mAb8.0 Fab (yeast clone culture supernatant) (Fab, V domains shown)
VH: QVQLVQSGAEVKKPGSSVKVSCKASGGTFSNYAISWVRQAPGQGLEWMGGILPILGTVDYAQKFQGRVTITADESTSTAYMELSSLRSEDTAVYYCAREPWYRLGAFDVWGQGTLVTVSS
VL: DIQMTQSPSSLSASVGDRVTITCRASQTIYKYLNWYQQKPGKAPKLLIYAASSLQSGVPSRFSGSGSGTDFTLTISSLQPEDFATYYCQQYSSIPYTFGQGTKVEIK
notes: Human Fab secreted by the yeast clone, not purified
With B6, in [13], the “ELISA OD450” value turned out to be 2.63 OD450. Also, in assay [14], the “% Inhibition, HEK-Blue IL-36R SEAP reporter assay” value stood at 85%.
